Data taken from patent publication US20250326823A1.

Legend:
Assay in all cases: cell-based or functional assay
[1] = biological target: SARS-CoV-2 spike (S) protein, BA.1 variant (SARS-CoV-2) (UniProt P0DTC2)
[2] = biological target: SARS-CoV-2 spike (S) protein, BA.2.12.1 variant (SARS-CoV-2) (UniProt P0DTC2)
[3] = biological target: SARS-CoV-2 spike (S) protein, BA.2.75 variant (SARS-CoV-2) (UniProt P0DTC2)
[4] = biological target: SARS-CoV-2 spike (S) protein, BA.2.75.2 variant (SARS-CoV-2) (UniProt P0DTC2)
[5] = biological target: SARS-CoV-2 spike (S) protein, BA.4.6 variant (SARS-CoV-2) (UniProt P0DTC2)
[6] = biological target: SARS-CoV-2 spike (S) protein, BA.4/5 variant (SARS-CoV-2) (UniProt P0DTC2)
[7] = biological target: SARS-CoV-2 spike (S) protein, variant BJ.1 (SARS-CoV-2) (UniProt P0DTC2)
[8] = biological target: SARS-CoV-2 spike (S) protein, variant BQ.1.1 (SARS-CoV-2) (UniProt P0DTC2)
[9] = biological target: SARS-CoV-2 spike (S) protein, variant XBB (SARS-CoV-2) (UniProt P0DTC2)
[10] = biological target: SARS-CoV-2 spike (S) protein, variant BA.2.86 (SARS-CoV-2) (UniProt P0DTC2)
[11] = biological target: SARS-CoV-2 spike (S) protein, variant CH.1.1 (SARS-CoV-2) (UniProt P0DTC2)
[12] = biological target: SARS-CoV-2 spike (S) protein, variant EG.5.1 (SARS-CoV-2) (UniProt P0DTC2)
[13] = biological target: SARS-CoV-2 spike (S) protein, variant JN.1 (SARS-CoV-2) (UniProt P0DTC2)
[14] = biological target: SARS-CoV-2 spike (S) protein, variant KP.2 (SARS-CoV-2) (UniProt P0DTC2)
[15] = biological target: SARS-CoV-2 spike (S) protein, variant KP.2.3 (SARS-CoV-2) (UniProt P0DTC2)
[16] = biological target: SARS-CoV-2 spike (S) protein, variant KP.3 (SARS-CoV-2) (UniProt P0DTC2)
[17] = biological target: SARS-CoV-2 spike (S) protein, variant KP.3.1.1 (SARS-CoV-2) (UniProt P0DTC2)
[18] = biological target: SARS-CoV-2 spike (S) protein, variant LB.1 (SARS-CoV-2) (UniProt P0DTC2)
[19] = biological target: SARS-CoV-2 spike (S) protein, variant XEC (SARS-CoV-2) (UniProt P0DTC2)
[20] = biological target: SARS-CoV-2 spike (S) protein, D614G (SARS-CoV-2) (UniProt P0DTC2)
[21] = biological target: SARS-CoV-2 spike (S) protein, variant BA.2.86 (SARS-CoV-2)
[22] = biological target: SARS-CoV-2 spike (S) protein, variant CH.1.1 (SARS-CoV-2)
[23] = biological target: SARS-CoV-2 spike (S) protein, variant EG.5.1 (SARS-CoV-2)
[24] = biological target: SARS-CoV-2 spike (S) protein, variant JN.1 (SARS-CoV-2)
[25] = biological target: SARS-CoV-2 spike (S) protein, variant KP.2 (SARS-CoV-2)
[26] = biological target: SARS-CoV-2 spike (S) protein, variant KP.2.3 (SARS-CoV-2)
[27] = biological target: SARS-CoV-2 spike (S) protein, variant KP.3 (SARS-CoV-2)
[28] = biological target: SARS-CoV-2 spike (S) protein, variant KP.3.1.1 (SARS-CoV-2)
[29] = biological target: SARS-CoV-2 spike (S) protein, variant LB.1 (SARS-CoV-2)
[30] = biological target: SARS-CoV-2 spike (S) protein, variant XEC (SARS-CoV-2)

LY-CoV-1404 (antibody) gave a pseudotyped neutralization potency IC50 [1] of 0.002 µg/mL, a pseudotyped neutralization potency IC80 [1] of 0.005 µg/mL and a pseudotyped neutralization potency IC50 [2] of 0.0013 µg/mL. For the same substance, the pseudotyped neutralization potency IC80 [2] was 0.004 µg/mL, the pseudotyped neutralization potency IC50 [3] was 0.003 µg/mL and the pseudotyped neutralization potency IC80 [3] was 0.015 µg/mL. The pseudotyped neutralization potency IC50 [4] was 0.001 µg/mL, the pseudotyped neutralization potency IC80 [4] was 0.005 µg/mL and the pseudotyped neutralization potency IC50 [5] was 0.0004 µg/mL. It also gave a pseudotyped neutralization potency IC80 [5] of 0.0014 µg/mL, a pseudotyped neutralization potency IC50 [6] of 0.0014 µg/mL and a pseudotyped neutralization potency IC80 [6] of 0.003 µg/mL. For the same substance, the pseudotyped neutralization potency IC50 [7] was over 10 µg/mL, the pseudotyped neutralization potency IC80 [7] was over 10 µg/mL and the pseudotyped neutralization potency IC50 [8] was over 10 µg/mL. It also gave a pseudotyped neutralization potency IC80 [8] of over 10 µg/mL, a pseudotyped neutralization potency IC50 [9] of over 10 µg/mL and a pseudotyped neutralization potency IC80 [9] of over 10 µg/mL.
Substance VYD222 (antibody) has a neutralizing activity IC50 (µg/ml (caption; values match nM)) [10] of 14.2, a neutralizing activity IC80 (µg/ml (caption; values match nM)) [10] of 36.7 and a neutralizing activity IC50 (µg/ml (caption; values match nM)) [11] of 9.93. For the same substance, the neutralizing activity IC80 (µg/ml (caption; values match nM)) [11] was 30.4, the neutralizing activity IC50 (µg/ml (caption; values match nM)) [12] was 6 and the neutralizing activity IC80 (µg/ml (caption; values match nM)) [12] was 20.9. It also gave a neutralizing activity IC50 (µg/ml (caption; values match nM)) [13] of 4.71, a neutralizing activity IC80 (µg/ml (caption; values match nM)) [13] of 15.6 and a neutralizing activity IC50 (µg/ml (caption; values match nM)) [14] of 4.56. It also gave a neutralizing activity IC80 (µg/ml (caption; values match nM)) [14] of 16.5, a neutralizing activity IC50 (µg/ml (caption; values match nM)) [15] of 28.4 and a neutralizing activity IC80 (µg/ml (caption; values match nM)) [15] of 66.3. The neutralizing activity IC50 (µg/ml (caption; values match nM)) [16] was 8.83, the neutralizing activity IC80 (µg/ml (caption; values match nM)) [16] was 39.5 and the neutralizing activity IC50 (µg/ml (caption; values match nM)) [17] was 27.2. For the same substance, the neutralizing activity IC80 (µg/ml (caption; values match nM)) [17] was over 67, the neutralizing activity IC50 (µg/ml (caption; values match nM)) [18] was 30.8 and the neutralizing activity IC80 (µg/ml (caption; values match nM)) [18] was over 67. For the same substance, the neutralizing activity IC50 (µg/ml (caption; values match nM)) [19] was over 67, the neutralizing activity IC80 (µg/ml (caption; values match nM)) [19] was over 67 and the neutralization IC50 [20] was 0.01 µg/mL. It also gave a neutralization IC50 [21] of 2.13 µg/mL, a neutralization IC50 [22] of 1.49 µg/mL and a neutralization IC50 [23] of 0.899 µg/mL. The neutralization IC50 [24] was 0.706 µg/mL, the neutralization IC50 [25] was 0.684 µg/mL and the neutralization IC50 [26] was 4.25 µg/mL. For the same substance, the neutralization IC50 [27] was 1.32 µg/mL, the neutralization IC50 [28] was 4.05 µg/mL and the neutralization IC50 [29] was 4.62 µg/mL. For the same substance, the neutralization IC50 [30] was over 10 µg/mL.
